Measured values taken from patent US20200140504A1 (GENESEN, published 2020).
One block for each binder: values may come before it. Primed or numbered codes have the meaning given here. Ends that are not written are not given here. FITC′ = fluorescein isothiocyanate

How the values were obtained:
[1] = target: T1, MyD88 (myeloid differentiation 88), in THP1 human monocytes (human, UniProt Q99836 1-296); experiment: confocal immunofluorescence, THP1 cells treated with TIP1-FITC and LPS
T1 construct: whole, on cells; Endogenous intracellular protein seen by immunofluorescence; Species follows from the THP1 human cells
Procedure: (§1) RAW 264.7 cells and THP1 cells were dispensed into 24-well plates to a cell number of 2×10⁵ cells/well, and then grown in an incubator overnight. Subsequently, combined treatment with TIP1 and LPS was performed. After 24 hours, the RAW 264.7 cells and the THP1 cells were fixed with 3.7% formaldehyde (Sigma-Aldrich Co. LLC) for 15 minutes, and immersed into 0.2% Triton X-100 (AMRESCO, Solon, Ohio, USA) for 15 minutes. Then, washing with PBS was performed three times and blocking with 2% BSA solution was performed. […] Subsequently, the cells were stained at room temperature for 15 minutes using 5 μM Hoechst 33258 (Sigma-Aldrich Co.), and the number of the fluorescently stained cells was counted using a confocal laser scanning microscope (LSM-700, Carl Zeiss MicroImaging GmbH). The images were analyzed using Zen 2009 software.
(§2) In addition, in order to identify binding of TIP1 to TLR4, TIP1-FITC was prepared by binding fluorescein isothiocyanate (FITC) to the N-terminus of TIP1. The THP1 cells in Example 1-2 were subjected to treatment with TIP1 (TIP1-FITC) or to combined treatment with LPS and TIP1, and then the number of fluorescently stained cells were counted using immunofluorescent staining and a confocal microscope according to the method described in Examples 2-4, thereby analyzing interactions between the proteins. […]

[2] = target: T2, Toll-like receptor 4 (TLR4), human (human, UniProt O00206 24-839); experiment: confocal laser scanning microscopy, THP1 cells treated with TIP1-FITC with or without LPS
T2 construct: whole, on cells; also called hTLR4; human TLR4
Procedure: as §1, §2

[3] = target: T2, Toll-like receptor 4 (TLR4), human; experiment: conclusion of Experimental Example 8 (SPR on TIR-domain peptides, data not given; confocal microscopy)

T2 sequence (O00206 24-839): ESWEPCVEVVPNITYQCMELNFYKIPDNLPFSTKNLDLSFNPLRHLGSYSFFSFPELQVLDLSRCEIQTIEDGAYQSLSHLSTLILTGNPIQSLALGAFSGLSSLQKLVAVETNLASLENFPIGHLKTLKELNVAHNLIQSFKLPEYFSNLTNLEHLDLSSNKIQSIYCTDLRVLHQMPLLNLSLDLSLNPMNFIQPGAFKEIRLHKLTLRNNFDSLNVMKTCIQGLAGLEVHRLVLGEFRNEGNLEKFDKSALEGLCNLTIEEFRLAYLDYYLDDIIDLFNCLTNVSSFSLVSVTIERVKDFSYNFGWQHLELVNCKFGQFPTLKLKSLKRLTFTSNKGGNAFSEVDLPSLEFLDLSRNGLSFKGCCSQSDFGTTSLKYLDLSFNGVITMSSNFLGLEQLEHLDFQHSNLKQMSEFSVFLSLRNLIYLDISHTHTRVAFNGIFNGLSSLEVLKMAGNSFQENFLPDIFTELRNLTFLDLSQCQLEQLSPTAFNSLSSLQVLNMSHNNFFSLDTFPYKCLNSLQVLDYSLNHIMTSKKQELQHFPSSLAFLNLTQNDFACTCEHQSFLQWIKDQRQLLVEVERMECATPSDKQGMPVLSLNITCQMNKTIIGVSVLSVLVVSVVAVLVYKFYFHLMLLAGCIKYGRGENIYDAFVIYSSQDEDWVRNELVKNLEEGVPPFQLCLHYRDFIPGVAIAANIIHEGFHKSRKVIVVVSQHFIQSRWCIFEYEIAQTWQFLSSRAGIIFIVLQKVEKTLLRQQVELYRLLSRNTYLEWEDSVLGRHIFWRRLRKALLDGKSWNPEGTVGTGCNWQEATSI
T1 sequence (Q99836 whole entry): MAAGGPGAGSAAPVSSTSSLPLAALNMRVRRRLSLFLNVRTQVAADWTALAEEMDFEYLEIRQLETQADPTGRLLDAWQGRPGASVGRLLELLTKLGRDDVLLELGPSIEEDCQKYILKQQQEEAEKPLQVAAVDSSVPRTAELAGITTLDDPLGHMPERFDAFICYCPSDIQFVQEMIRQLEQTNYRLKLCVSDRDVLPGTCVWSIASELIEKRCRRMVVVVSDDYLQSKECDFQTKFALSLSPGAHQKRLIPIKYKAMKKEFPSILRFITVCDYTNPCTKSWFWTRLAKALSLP

binding result [1]: binds
binding result [2]: binds
B1: TIP1-FITC (peptide)
peptide: {FITC′}-RQIKIWFQNRRMKWKKSHCRVLLI
notes: used for confocal microscopy; also called TIP1 (TIP1-FITC)

binding result [3]: binds
Binder: RQIKIWFQNRRMKWKKSHCRVLLI [TIP1 (Toll-like receptor inhibitory peptide 1)]
